In PMC7160673, “A Degenerate Peptide Library Approach to Reveal Sequence Determinants of Methyllysine-Driven Protein Interactions” (Frontiers in Cell and Developmental Biology, 2020) one finds Kd, fold tighter than the H3K9me3 peptide and response (RFU (GST-subtracted fluorescence)) data, which are given here for 3 substances.

Where two headings read alike, the source gives them in different places.

The target of assay [1] is FAM-KAK(Kme3)TGK peptide (human). Kind of assay: fluorescence polarisation; protein serially diluted with 10 nM FAM peptide; 25 mM HEPES pH 7.5, 100 mM NaCl, 0.05% NP-40; anisotropy fitted by specific binding with Hill slope.
A further assay deals with FAM-WAY(Kme3)TGK peptide. The assay is described as above.
Assay [2] concerns the target FAM-KAK(Kme3)TGK peptide (human). Described as above. The source holds these as a separate data set.
Assay [3] has as its target FAM-TAR(Kme3)STG peptide (H3K9me3). The description is as above.
For assay [4], the target named is biotinylated H3(1-20)K9me2 peptide. Kind of assay: Kme-OPL pulldown fluorescence assay (GST-tagged reader domain). Particulars: parent: est. 1300; read off a plot.

Chain of M Phase Phosphoprotein 8 chromodomain (Q99549 55-116): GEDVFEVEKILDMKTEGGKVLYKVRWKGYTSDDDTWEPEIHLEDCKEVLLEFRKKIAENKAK

Take “Chromodomain Y-like protein 2 chromodomain (domain or fragment)”: in assay [1], the Kd – broadly, the equilibrium constant for the complex coming apart – is 3600 nM. Besides, in the assay with FAM-WAY(Kme3)TGK peptide, the fold tighter than the H3K9me3 peptide worked out at 100 fold.

As to “M Phase Phosphoprotein 8 chromodomain (from UniProt Q99549 55-116) (domain or fragment)”, the Kd amounted to 840 nM in assay [1], 660 nM in assay [2] and 5400 nM in assay [3]. In assay [1], this substance returned a fold tighter than the H3K9me3 peptide of 10 fold.

As to “M Phase Phosphoprotein 8 chromodomain (from UniProt Q99549) W80A”, the response (RFU (GST-subtracted fluorescence)) in assay [4] was found to be 150.
